Measurements from article PMC10412584, “Molecular reshaping of phage-displayed Interleukin-2 at beta chain receptor interface to obtain potent super-agonists with improved developability profiles” (Communications Biology, 2023).
Residue numbers refer to the chain shown, from its start. Names may count otherwise. Where two headings read alike, the source gives them in different places.

Experiments:
[1] = biological target: T1, recombinant fusion protein comprising human IL-2R beta subunit extracellular domain and mouse IgG2a Fc (human, UniProt P14784 27-240); test: ELISA; polyvinyl chloride plates coated with IL-2R beta ECD/mouse IgG2a Fc at 10 µg/mL in PBS; Fc-fusion proteins diluted in M-PBS, 1 h at RT; detected with anti-human IgG-HRP; settings: both partners purified
T1 construct: human IL-2 receptor beta subunit (CD122), extracellular domain; also called IL-2R beta/mFc; IL-2R beta ECD/mouse IgG2a Fc
T1 sequence (looked up): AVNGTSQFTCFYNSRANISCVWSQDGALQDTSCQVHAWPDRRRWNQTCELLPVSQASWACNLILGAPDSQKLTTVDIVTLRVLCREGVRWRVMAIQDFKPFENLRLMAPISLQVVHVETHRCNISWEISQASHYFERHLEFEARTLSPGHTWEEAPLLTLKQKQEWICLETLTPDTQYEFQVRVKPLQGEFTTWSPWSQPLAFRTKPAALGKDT

[2] = biological target: T1, recombinant fusion protein comprising …; test: SPR; Biacore T200; IL-2R beta ECD/mouse IgG2a Fc amine-coupled to a CM5 chip; Fc-fusion proteins 1-800 nmol/L injected at 15 µL/min in PBS with 0.05% Tween 20; single-cycle mode; global fit to the 1:1 model; settings: both partners purified
[3] = biological target: T2, human IL-2 receptor beta chain extracellular domain (ECD) (human, UniProt P14784 27-240); test: ELISA; polyvinyl chloride plates coated with human beta chain ECD; purified phage preparations of individual clones; bound phages detected with anti-M13-HRP; relative reactivity = signal on beta chain / signal on 9E10 (anti-c-myc); settings: both partners purified
T2 construct: human IL-2 receptor beta subunit (CD122), recombinant extracellular domain; Coated on immunotubes for panning and on plates for phage ELISA; also called hIL-2R beta subunit ECD; beta chain ECD; source: bought: R&D Systems
T2 sequence (looked up): T1 sequence (looked up)

[4] = biological target: T3, 80FDPHDVVE87 + I92L + V93L(K35E)/Fc (human, UniProt P60568 21-153, K35E | L80F | R81D | R83H (from the name 80FDPHDVVE87) | L85V | I86V | S87E | …); test: SPR
[5] = biological target: T4, H9(K35E)/Fc (human, UniProt P60568 21-153, K35E | L80F | R81D | L85V | I86V | I92F); test: SPR
[6] = biological target: T5, 80FDPADVVE87 + I92L(K35E)/Fc (human, UniProt P60568 21-153, K35E | L80F | R81D | R83 was replaced by either Ala or Glu (here Ala) | L85V | …); test: SPR
[7] = biological target: T6, 80FDPEDVVE87 + I92L(K35E)/Fc (human, UniProt P60568 21-153, K35E | L80F | R81D | R83 was replaced by either Ala or Glu (here Glu) | L85V | …); test: SPR
[8] = biological target: T7, IL-2(K35E)/Fc (human, UniProt P60568 21-153, K35E); test: SPR
[9] = biological target: T8, 80VPPEDLIE87 + I92L(K35E)/Fc (human, UniProt P60568 21-153, K35E | L80V (from the name 80VPPEDLIE87) | R81P (from the name 80VPPEDLIE87) | …); test: SPR
[10] = biological target: T9, 80VPPEDLIA87 + I92L(K35E)/Fc (human, UniProt P60568 21-153, K35E | L80V (from the name 80VPPEDLIA87) | R81P (from the name 80VPPEDLIA87) | …); test: SPR
[11] = biological target: T10, fusion protein containing I92L-hIL-2 (K35E, human IgG1 Fc) (human, UniProt P60568 21-153, K35E | I92L); test: SPR
[12] = biological target: T4, H9(K35E)/Fc; test: SPR; remark: listed apart in the source
[13] = biological target: T11, H9(K35E)/Fc in which F92 was replaced by the phage-selected Leu (human, UniProt P60568 21-153, K35E | L80F | R81D | L85V | I86V | I92L); test: SPR
[14] = biological target: T7, IL-2(K35E)/Fc; test: SPR; remark: listed apart in the source
[15] = biological target: T12, H9(K35E)/Fc in which F92 was replaced by the original Ile (human, UniProt P60568 21-153, K35E | L80F | R81D | L85V | I86V); test: SPR
[16] = biological target: T3, 80FDPHDVVE87 + I92L + V93L(K35E)/Fc; test: SPR; remark: listed apart in the source
[17] = biological target: T4, H9(K35E)/Fc; test: SPR; remark: listed apart in the source
[18] = biological target: T5, 80FDPADVVE87 + I92L(K35E)/Fc; test: SPR; remark: listed apart in the source
[19] = biological target: T6, 80FDPEDVVE87 + I92L(K35E)/Fc; test: SPR; remark: listed apart in the source
[20] = biological target: T7, IL-2(K35E)/Fc; test: SPR; remark: listed apart in the source
[21] = biological target: T8, 80VPPEDLIE87 + I92L(K35E)/Fc; test: SPR; remark: listed apart in the source
[22] = biological target: T9, 80VPPEDLIA87 + I92L(K35E)/Fc; test: SPR; remark: listed apart in the source
[23] = biological target: T10, fusion protein containing I92L-hIL-2 …; test: SPR; remark: listed apart in the source
[24] = biological target: T4, H9(K35E)/Fc; test: SPR; remark: listed apart in the source
[25] = biological target: T11, H9(K35E)/Fc in which F92 was replaced …; test: SPR; remark: listed apart in the source
[26] = biological target: T7, IL-2(K35E)/Fc; test: SPR; remark: listed apart in the source
[27] = biological target: T12, H9(K35E)/Fc in which F92 was replaced …; test: SPR; remark: listed apart in the source

B1: 81DPQDLIE87 + I92L(K35E)/Fc (Fc fusion, human, UniProt P60568 21-153, looked up)
chain: APTSSSTKKTQLQLEHLLLDLQMILNGINNYKNPELTRMLTFKFYMPKKATELKHLQCLEEELKPLEEVLNLAQSKNFHLDPQDLIENINVLVLELKGSETTFMCEYADETATIVEFLNRWITFCQSIISTLT
notes: human interleukin-2 whose segment 81-87 reads DPQDLIE, with I92L; the first two aa (Ala-Pro) are present in the Fc constructs; source: HEK-293T adapted to suspension, transient transfection, purified from supernatant (protein A)
Q: Does B1 bind [1]?
A: binds

B2: 80VPPEDLIA87 + I92L(K35E)/Fc (Fc fusion, human, UniProt P60568 21-153, looked up)
chain: B1 chain with L80V, D81P, Q83E, E87A
notes: the first two aa (Ala-Pro) are present in the Fc constructs; source: HEK-293T adapted to suspension, transient transfection, purified from supernatant (protein A)
Q: Does B2 bind [1]?
A: binds

B3: 81DPQDLIE87(K35E)/Fc (Fc fusion, human, UniProt P60568 21-153, looked up)
chain: B1 chain with L92I
notes: human interleukin-2 whose segment 81-87 reads DPQDLIE; the first two aa (Ala-Pro) are present in the Fc constructs; source: HEK-293T adapted to suspension, transient transfection, purified from supernatant (protein A)
Q: Does B3 bind [1]?
A: binds

B4: 81VPEDLIE87(K35E)/Fc (Fc fusion, human, UniProt P60568 21-153, looked up)
chain: B1 chain with D81V, Q83E, L92I
notes: human interleukin-2 whose segment 81-87 reads VPEDLIE; the first two aa (Ala-Pro) are present in the Fc constructs; source: HEK-293T adapted to suspension, transient transfection, purified from supernatant (protein A)
Q: Does B4 bind [1]?
A: binds

B5: 80FDPADVVE87 + I92L(K35E)/Fc (Fc fusion, human, UniProt P60568 21-153, looked up)
chain: B1 chain with L80F, Q83A, L85V, I86V
notes: as for B2
Q: Does B5 bind [1]?
A: binds

B6: 80FDPHDVVE87 + I92L + V93L(K35E)/Fc (Fc fusion, human, UniProt P60568 21-153, looked up)
chain: B1 chain with L80F, Q83H, L85V, I86V, V93L
notes: the first two aa (Ala-Pro) are present in the Fc constructs; also called fusion protein derived from phage clone 1A; source: HEK-293T adapted to suspension, transient transfection, purified from supernatant (protein A)
Q: Does B6 bind [1]?
A: binds

B7: H9(K35E)/Fc in which F92 was replaced by the original Ile (Fc fusion, human, UniProt P60568 21-153, looked up)
chain: B1 chain with L80F, Q83R, L85V, I86V, E87S, L92I
notes: human interleukin-2 with the H9 mutations except that residue 92 is the original Ile; the first two aa (Ala-Pro) are present in the Fc constructs; also called F92I-containing protein; source: HEK-293T adapted to suspension, transient transfection, purified from supernatant (protein A)
Q: Does B7 bind [1]?
A: binds

B8: 80FDPEDVVE87 + I92L(K35E)/Fc (Fc fusion, human, UniProt P60568 21-153, looked up)
chain: B1 chain with L80F, Q83E, L85V, I86V
notes: as for B2
Q: Does B8 bind [1]?
A: binds

B9: 80VPPEDLIE87 + I92L(K35E)/Fc (Fc fusion, human, UniProt P60568 21-153, looked up)
chain: B1 chain with L80V, D81P, Q83E
notes: the first two aa (Ala-Pro) are present in the Fc constructs; also called variant 2B further optimized by incorporating S87E; source: HEK-293T adapted to suspension, transient transfection, purified from supernatant (protein A)
Q: Does B9 bind [1]?
A: binds

B10: 81VPEDLIE87 + I92L(K35E)/Fc (Fc fusion, human, UniProt P60568 21-153, looked up)
chain: B1 chain with D81V, Q83E
notes: human interleukin-2 whose segment 81-87 reads VPEDLIE, with I92L; the first two aa (Ala-Pro) are present in the Fc constructs; source: HEK-293T adapted to suspension, transient transfection, purified from supernatant (protein A)
Q: Does B10 bind [1]?
A: binds

B11: H9(K35E)/Fc in which F92 was replaced by the phage-selected Leu (Fc fusion, human, UniProt P60568 21-153, looked up)
chain: B1 chain with L80F, Q83R, L85V, I86V, E87S
notes: human interleukin-2 with the H9 mutations except that residue 92 is Leu; the first two aa (Ala-Pro) are present in the Fc constructs; also called F92L-containing protein; source: HEK-293T adapted to suspension, transient transfection, purified from supernatant (protein A)
Q: Does B11 bind [1]?
A: binds

B12: H9(K35E)/Fc (Fc fusion, human, UniProt P60568 21-153, looked up)
chain: B1 chain with L80F, Q83R, L85V, I86V, E87S, L92F
notes: human interleukin-2 with the mutations of H9 superkine and K35E; the first two aa (Ala-Pro) are present in the Fc constructs; Heavily aggregated in SEC; also called H9(K35)/Fc; fusion protein based on H9 superkine; source: HEK-293T adapted to suspension, transient transfection, purified from supernatant (protein A)
Q: With B12 as the binder, how does the “fold decrease of KD against IL-2(K35E)/Fc” value [2] read?
A: ~25 fold

Q: What about the koff [2] of the same binder?
A: ~0.0003 s⁻¹

B13: phage-displayed hIL-2 variant 2B (S2 library) (ligand, human, UniProt P60568 23-153, looked up)
chain: TSSSTKKTQLQLEHLLLDLQMILNGINNYKNPKLTRMLTFKFYMPKKATELKHLQCLEEELKPLEEVLNLAQSKNFHVPPEDLIANINVLVLELKGSETTFMCEYADETATIVEFLNRWITFCQSIISTLT
notes: No K35E on the phage
Q: Does B13 bind [3]?
A: binds

B14: recombinant fusion protein comprising human IL-2R beta subunit extracellular domain and mouse IgG2a Fc (Fc fusion)
chain: T1 sequence (looked up)
Q: With B14 as the binder, how does the koff [4] read?
A: 0.000266 s⁻¹

Q: What about the koff [5] of the same binder?
A: 0.000395 s⁻¹

Q: What about the koff [6] of the same binder?
A: 0.000461 s⁻¹

Q: What about the koff [7] of the same binder?
A: 0.000273 s⁻¹

Q: And the koff [8]?
A: 0.00326 s⁻¹

Q: What about the koff [9] of the same binder?
A: 0.000304 s⁻¹

Q: And the koff [10]?
A: 0.000349 s⁻¹

Q: And the koff [11]?
A: 0.00113 s⁻¹

Q: What about the koff [12] of the same binder?
A: 0.000218 s⁻¹

Q: And the koff [13]?
A: 0.000298 s⁻¹

Q: What about the koff [14] of the same binder?
A: 0.00308 s⁻¹

Q: And the koff [15]?
A: 0.000251 s⁻¹

Q: And the Kd [16]?
A: 1.12 nM

Q: And the Kd [17]?
A: 4.09 nM

Q: What about the Kd [18] of the same binder?
A: 0.54 nM

Q: And the Kd [19]?
A: 0.29 nM

Q: What about the Kd [20] of the same binder?
A: 106 nM

Q: And the Kd [21]?
A: 0.37 nM

Q: And the Kd [22]?
A: 0.8 nM

Q: What about the Kd [23] of the same binder?
A: 36.5 nM

Q: And the Kd [24]?
A: 4.47 nM

Q: What about the Kd [25] of the same binder?
A: 3.35 nM

Q: And the Kd [26]?
A: 103 nM

Q: And the Kd [27]?
A: 3.84 nM
